Here are results for six proteins from paper PMC7229829, “Distortion of double-stranded DNA structure by the binding of the restriction DNA glycosylase R.PabI” (Nucleic Acids Research, 2020).

The labels stand for the following.
B1: R.PabI(Y68F-K154A) mutant (enzyme, Pyrococcus abyssi, UniProt Q9V2B6 8-226, looked up)
chain: EASVSFENGKIVVRLPITRPTSKIRVKKIENGVGIPVSTRKKSFPSDENLRDYYIEWQISFARDGKYDYELSRMVRLAHEHGILTYNDIYELLKFADDVKSYLEDKGIRRESTNEELYGFNIYEDVYPVAKKELPSGEFIGIVLKHAQRAVGYQSMVYVCIPLTNVEPSLAGRVARRNEVVKYEVPVDLMKELLKAFIIASETHKNDIVKFLRSIIGTS
notes: R.PabI, restriction DNA glycosylase of Pyrococcus abyssi, residues 8-226, cloned into pET26b; Mr = 25 287 printed; the vector pET26b can add a C-terminal His tag, but the printed Mr fits residues 8-226 without a tag; also called Y68F-K154A double mutant of R.PabI; source: E. coli Rosetta(DE3)pLysS, purified (heat 80°C, TOYOPEARL AF-Heparin, Mono S)
B2: R.PabI(Y68F-P27G-T28G) mutant (enzyme, Pyrococcus abyssi, UniProt Q9V2B6 8-226, looked up)
chain: B1 chain with P20G, T21G, A147K
notes: R.PabI, restriction DNA glycosylase of Pyrococcus abyssi, residues 8-226, cloned into pET26b; Mr = 25 260 printed; Called a dimer in the methods (loaded '2 μM as a dimer'); also called Y68F-P27G-T28G triple mutant; source: E. coli Rosetta(DE3)pLysS, purified (heat 80°C, TOYOPEARL AF-Heparin, Mono S)
B3: R.PabI(K154A-P27G-T28G) mutant (enzyme, Pyrococcus abyssi, UniProt Q9V2B6 8-226, looked up)
chain: B1 chain with P20G, T21G, F61Y
notes: R.PabI, restriction DNA glycosylase of Pyrococcus abyssi, residues 8-226, cloned into pET26b; Mr = 25 219 printed; Called a dimer in the methods (loaded '2 μM as a dimer'); source: E. coli Rosetta(DE3)pLysS, purified (heat 80°C, TOYOPEARL AF-Heparin, Mono S)
B4: R.PabI(K154A) mutant (enzyme, Pyrococcus abyssi, UniProt Q9V2B6 8-226, looked up)
chain: B1 chain with F61Y
notes: R.PabI, restriction DNA glycosylase of Pyrococcus abyssi, residues 8-226, cloned into pET26b; Mr = 25 303 printed; Called a dimer in the methods (loaded '2 μM as a dimer'); PDB 3WAZ (cited) holds R.PabI(K154A) with product dsDNA; also called K154A mutant of R.PabI; source: E. coli Rosetta(DE3)pLysS, purified (heat 80°C, TOYOPEARL AF-Heparin, Mono S)
B5: R.PabI(Y68F-P27G) mutant (enzyme, Pyrococcus abyssi, UniProt Q9V2B6 8-226, looked up)
chain: B1 chain with P20G, A147K
notes: R.PabI, restriction DNA glycosylase of Pyrococcus abyssi, residues 8-226, cloned into pET26b; Mr = 25 304 printed; Called a dimer in the methods (loaded '2 μM as a dimer'); also called Y68F-P27G double mutant; source: E. coli Rosetta(DE3)pLysS, purified (heat 80°C, TOYOPEARL AF-Heparin, Mono S)
B6: R.PabI(Y68F) mutant (enzyme, Pyrococcus abyssi, UniProt Q9V2B6 8-226, looked up)
chain: B1 chain with A147K
notes: R.PabI, restriction DNA glycosylase of Pyrococcus abyssi, residues 8-226, cloned into pET26b; Mr = 25 344 printed; Called a dimer in the methods (loaded '2 μM as a dimer'); source: E. coli Rosetta(DE3)pLysS, purified (heat 80°C, TOYOPEARL AF-Heparin, Mono S)

Numbering of substitutions follows the chain as printed. Names and notes keep the numbering of the source.

The data set concerns the molecule itself. Nature of the data set: SEC; Superdex 200 HR 10/30; 2 μM as a dimer loaded; 10 mM MES pH 6.0, 500 mM NaCl; oligomeric state estimated against standard proteins.
As a reminder, the stoichiometry N is a count of units in the complex or per binding partner. On to B1, for which the “stoichiometry N” value is 2.

As to B2, the binding result is listed as “binds”.

Turning to B3, the binding result was “binds”.

On to B4, for which the binding result is on record as “binds”.

In the case of B5, the binding result is recorded as “binds”.

Turning to B6, the binding result was “binds”.
